From patent US11066482B2, “Specific plasmin inactivation by anticatalytic antibody” (priority 2017, dated 2021)

Experiments:
[1] = molecular target: protease domain of reduced human plasmin (Homo sapiens, UniProt P00747); assay: Immunoblotting of reduced human plasmin; format: binding
Method: FIGS. 1A-1D show binding specificity and avidity of Pi for human plasmin. […] Relative migration of molecular standards (kDa) is shown. […] Wells of a microtiter plate were coated with native (wild-type, WT) or various microplasmin loop mutants (5 ug/ml). After blocking, Pi, a polyclonal rabbit anti-plasmin (plasmin Ab) or a non-reactive mouse (anti-digoxin, control) antibody (1 ug/ml) were added to wells. The bound antibodies (Pi, control) were detected by a secondary anti-mouse peroxidase (1:10,000) and the plasmin antibodies were detected by anti-rabbit peroxidase antibody (1:5,000) followed by TMB substrate with monitoring at A405. […] Wells of microtiter plate were coated with human plasminogen (2 ug/ml). After blocking and washing, various concentrations of purified Pi (shown) were added for 1 h. After washing the amount of antibody bound was detected by a secondary anti-mouse antibody followed by TMB substrate with monitoring at A405 nm. Data shown the means±SE of triplicate observations, experiments repeated at least twice. The data were analyzed with Graphpad Prism, r=0.95.

Plasmin = Plasmin (Homo sapiens, UniProt P00747); assay: Velocity of S2251 substrate cleavage (Michaelis-Menten); format: biochemical; conditions: plasmin 100 nM, Pi 50 nM, S2251 0.1 to 4 mM
Method: FIGS. 2A-2D show comparative inhibition of plasmin activity by Pi EACA and a2AP. […] The percent residual activity of plasmin as a function of the log concentration of inhibitor is shown. […] Human plasmin (100 nM, Hematologic Technologies, Inc.) was mixed with or without Pi (50 nM) in the presence of the substrate S2251 (0.1 to 4 mM). The initial rate of substrate cleavage (6 min.) was monitored at A405. Data were plotted and analyzed using Michaelis-Menten kinetics by the Graphpad Prism Program. Means (duplicate observations) are shown and are representative of 4 separate experiments. […] The means of duplicate observations are shown. […] Plasmin (25 nM) was mixed with various concentrations (0-200 nM) of mouse Fab or chimeric Fab (cFab) and S2251 (0.5 mM) in TBS buffer pH 7.4. Plasmin activity was measured by the release of paranitroanilide product at A405 over time.
The effect of Pi on the velocity of substrate cleavage by human plasmin was examined. Human plasmin (100 nM, Hematologic Technologies, Inc.) was mixed with or without Pi (50 nM) in the presence of the substrate S2251 (0.1 to 4 mM). The initial rate of substrate cleavage (6 min.) was monitored at A405. Data were plotted and analyzed using Michaelis-Menten kinetics by the Graphpad Prism Program.

[2] = tested on: plasmin activity in gerbil plasma; assay: Plasmin activity in plasma after urokinase, S2251; format: biochemical; conditions: Pi 1 uM
Method: (§1) FIGS. 3A-3D show binding and inhibitory specificity of Pi. […] The effect of various concentrations of Pi (0-2000 nM) on clots formed with human, baboon or African green monkey plasmas. Clot lysis was measured in microtiter plates after addition of urokinase as described in Methods.
(§2) Specificity of plasmin inhibition. The effect of the Pi on different animal plasmins was examined after addition of the plasminogen activator urokinase. Various animal plasmas (5 ul) were mixed in microtiter plates in the presence of Pi (1 uM, 10 ul) or buffer, S2251 (10 ul, 0.5 mM final), urokinase (100 or 200 U) in a total volume of 100 ul with PBS. The plates were incubated at 37 deg. C. and the rate of plasmin generation was monitored by substrate cleavage at 405 nm for 1 hr.

[3] = molecular target: T1, plasmin activity in pig plasma (Sus scrofa, UniProt P06867); assay: Plasmin activity in plasma after urokinase, S2251; format: biochemical; conditions: Pi 1 uM
T1 construct: from tissue; host or cells: pig plasma
Method: as §1, §2

[4] = tested on: plasmin activity in rabbit plasma; assay: Plasmin activity in plasma after urokinase, S2251; format: biochemical; conditions: Pi 1 uM
Method: as §1, §2

[5] = tested on: human clot lysis initiated by r-tPA; assay: Clot lysis assay of Pi, MAb 340 and control MAb with r-tPA; format: biochemical; conditions: human plasma, MAb 20 ug, r-tPA 2 nm
Method: as §1
The comparative effects of Pi, MAb 340 and a control MAb (anti-digoxin) were examined in a clot lysis assay in microtiter plates. Human plasma (50 ul) was mixed with the MAbs (20 ug) in duplicate and then clotted with CaCl2 and thrombin, with or without recombinant (r)-tPA (2 nm). Clot dissolution at 37 deg. C. was monitored at 405 nm for 120 min. The time required to fully dissolve the clots during the 120 min. observation period was recorded.

[6] = molecular target: plasmin-mediated cleavage of factor V (Homo sapiens, UniProt P00747); assay: Factor V cleavage by plasmin, SDS-PAGE; format: biochemical; conditions: EACA 1 mM or Pi 5 ug, 1 hr RT
Method: FIGS. 4A-4D show comparative inhibition of factor V cleavage and human clot fibrinolysis (dissolution) by Pi, EACA and a2AP. […] The relative migration of molecular weight standards is shown (kDa). […] Human plasma was clotted with CaCl2 (10 mM) and thrombin (1 U/ml) in the presence of trace amounts of 1251 fibrinogen for 1 h at 37 deg. C. After washing in 1 ml of TBS pH 7.4, tPA (5 nM) was added in the presence of various amounts of Pi (62.5 to 1000 nM), EACA (0.125 mM to 2 mM) or no inhibitor. After 2.5 h the amount of fibrinolysis was determined by measuring the amount of 125I-fibrin dissolved in the supernatant. Means of duplicate observations are shown. […] Clots were formed as above in the presence of human plasminogen (2 uM) and a2AP (1 uM) or Pi (1 uM) and various amounts of tPA (0-10 nM). Clot dissolution was monitored in duplicate over 2 h in microtiter plate wells at A405 nm. […] Human plasma clots were mixed with various concentrations of Pi IgG, Pi Fab and chimeric Pi Fab (25 nM-400 nM) and plasmin was activated by urokinase. The amount of clot lysis was determined as described in Methods.
Factor V cleavage. Human factor V (2 ug, IHFV, Innovative Research) was mixed with plasmin (0.05 ug) for 1 hr at RT in the presence of EACA (1 mM), Pi (5 ug) or a control monoclonal antibody (digoxin, 5 ug). […] Protein bands were detected by staining with Coomassie blue dye.

human plasma clots = assay: Clot lysis assay of Pi IgG, Fab and chimeric Fab, urokinase; format: biochemical; conditions: 25 nM-400 nM, 30 min
Method: FIGS. 4A-4D show comparative inhibition of factor V cleavage and human clot fibrinolysis (dissolution) by Pi, EACA and a2AP. […] The relative migration of molecular weight standards is shown (kDa). […] Human plasma was clotted with CaCl2 (10 mM) and thrombin (1 U/ml) in the presence of trace amounts of 1251 fibrinogen for 1 h at 37 deg. C. After washing in 1 ml of TBS pH 7.4, tPA (5 nM) was added in the presence of various amounts of Pi (62.5 to 1000 nM), EACA (0.125 mM to 2 mM) or no inhibitor. After 2.5 h the amount of fibrinolysis was determined by measuring the amount of 125I-fibrin dissolved in the supernatant. Means of duplicate observations are shown. […] Clots were formed as above in the presence of human plasminogen (2 uM) and a2AP (1 uM) or Pi (1 uM) and various amounts of tPA (0-10 nM). Clot dissolution was monitored in duplicate over 2 h in microtiter plate wells at A405 nm. […] The amount of clot lysis was determined as described in Methods.
The effects of Pi IgG, Fab or chimeric Fab were also compared in a clot lysis assay in microtiter plates. […] C. was monitored at 405 nm. The percent clot dissolution at 30 min. was determined as the percent change in peak turbidity from baseline=100%×(peak absorbance−30 min. absorbance)/(peak absorbance−baseline absorbance).

Sequence of Plasmin (P00747 97-580 limits assumed): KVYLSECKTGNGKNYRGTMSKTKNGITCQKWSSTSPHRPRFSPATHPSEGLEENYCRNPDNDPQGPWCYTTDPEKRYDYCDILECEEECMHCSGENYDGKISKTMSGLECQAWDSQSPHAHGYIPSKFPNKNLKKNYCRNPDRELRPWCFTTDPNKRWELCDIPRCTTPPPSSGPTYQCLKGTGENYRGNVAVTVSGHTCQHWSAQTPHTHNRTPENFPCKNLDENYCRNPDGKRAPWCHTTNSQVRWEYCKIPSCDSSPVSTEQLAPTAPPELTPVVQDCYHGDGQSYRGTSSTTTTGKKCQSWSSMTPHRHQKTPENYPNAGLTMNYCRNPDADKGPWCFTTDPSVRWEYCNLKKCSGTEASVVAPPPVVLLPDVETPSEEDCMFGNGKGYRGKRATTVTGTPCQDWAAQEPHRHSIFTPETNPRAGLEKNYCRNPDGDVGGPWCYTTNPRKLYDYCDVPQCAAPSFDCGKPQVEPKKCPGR
Sequence of Plasmin (P00747 581-810 limits assumed): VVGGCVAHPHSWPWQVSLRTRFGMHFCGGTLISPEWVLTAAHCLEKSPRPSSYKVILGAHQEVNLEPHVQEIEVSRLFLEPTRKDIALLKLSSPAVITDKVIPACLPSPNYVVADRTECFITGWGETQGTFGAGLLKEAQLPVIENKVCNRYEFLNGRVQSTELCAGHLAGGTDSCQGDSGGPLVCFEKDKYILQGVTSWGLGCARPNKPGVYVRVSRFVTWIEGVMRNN
Sequence of plasmin-mediated cleavage of factor V (P00747 97-580 limits assumed): as the sequence (P00747 97-580 limits assumed) above
Sequence of plasmin-mediated cleavage of factor V (P00747 581-810 limits assumed): as the sequence (P00747 581-810 limits assumed) above
T1 sequence (P06867 97-579 limits assumed): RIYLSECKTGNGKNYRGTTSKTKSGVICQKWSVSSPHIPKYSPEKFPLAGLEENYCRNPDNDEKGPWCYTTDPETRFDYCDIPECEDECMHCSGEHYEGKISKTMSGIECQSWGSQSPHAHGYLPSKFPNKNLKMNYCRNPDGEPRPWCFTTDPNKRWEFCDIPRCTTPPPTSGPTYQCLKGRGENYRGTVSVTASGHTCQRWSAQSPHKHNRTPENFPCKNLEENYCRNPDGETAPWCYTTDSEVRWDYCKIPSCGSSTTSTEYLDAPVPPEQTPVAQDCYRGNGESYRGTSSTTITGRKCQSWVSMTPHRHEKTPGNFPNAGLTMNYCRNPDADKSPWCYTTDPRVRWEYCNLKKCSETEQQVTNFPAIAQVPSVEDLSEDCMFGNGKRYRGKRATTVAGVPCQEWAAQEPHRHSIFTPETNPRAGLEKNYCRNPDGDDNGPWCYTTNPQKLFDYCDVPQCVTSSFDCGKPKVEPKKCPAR
T1 sequence (P06867 580-809 limits assumed): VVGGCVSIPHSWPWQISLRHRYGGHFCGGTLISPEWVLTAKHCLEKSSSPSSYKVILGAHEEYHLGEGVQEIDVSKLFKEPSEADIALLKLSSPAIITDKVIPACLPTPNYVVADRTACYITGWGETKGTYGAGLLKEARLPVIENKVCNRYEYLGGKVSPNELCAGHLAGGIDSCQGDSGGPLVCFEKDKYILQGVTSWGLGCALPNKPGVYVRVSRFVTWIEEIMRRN
Sequence of protease domain of reduced human plasmin (P00747 581-810 limits assumed): as the sequence (P00747 581-810 limits assumed) above

effect on plasmin activity generated by urokinase [2]: did not inhibit plasmin activity | effect on plasmin activity generated by urokinase [3]: did not inhibit plasmin activity | effect on plasmin activity generated by urokinase [4]: did not inhibit plasmin activity | effect on Factor V cleavage by plasmin [6]: Factor V cleavage was attenuated | inhibition of clot lysis by Pi molecular forms (human plasma clots): effectively inhibited clot lysis
B1: Pi: mouse monoclonal antibody plasmin inhibitor binding plasmin protease domain loops 4 and 5; LC SEQ ID NO:1, HC SEQ ID NO:4 (antibody)
heavy: EVKLLESGGGLVQPGGSLKLSCAASGFDFSRYWMSWVRQAPGKGLEWIGEINPDSSTINYTPSLKDKFIISRDNAKNSLYLQMSKVRSEDTALYYCASYCGYSYDALDCWGQGTSVTVSSAKTTPPSVYPLAPGSAAQTNSMVTLGCLVKGYFPEPVTVTWNSGSLSSGVHTFPAVLQSDLYTLSSSVTVPSSTWPSETVTCNVAHPASSTKVDKKIVPRDCGCKPCICTVPEVSSVFIFPPKPKDVLTITLTPKVTCVVVDISKDDPEVQFSWFVDDVEVHTAQTQPREEQFNSTFRSVSELPIMHQDWLNGKEFKCRVNSVAFPAPIEKTISKTKGRPKAPQVYTIPPPKEQMAKDKVSLTCMITDFFPEDITVEWQWNGQPAENYKNTQPIMDTDGSYFVYGKLNVQKSNWEAGNTFTCSVLHEGLHNHHTEKSLSHSPGK
light: DIQMTQSPSSLSASLGGKVSITCKASQDINKYISWYQHKPGKGPRLLIHYTSTLQPGIPSRFSGSGSGRDYSFSISNLEPEDIATYYCLQYDNLYTFGGGTKLEIKRADAAPTVSIFPPSSEQLTSGGASVVCFLNNFYPKDINVKWKIDGSERQNGVLNSWTDQDSKDSTYSMSSTLTLTKDEYERHNSYTCEATHKTSTSPIVKSFNWNEC
binding by immunoblotting [1]: bound specifically to the protease domain of plasmin | effect on Vmax of plasmin cleavage of S2251 (Plasmin): reduced the Vmax of plasmin cleavage of S2251 | clot dissolution during 120 min [5]: did not significantly dissolve
